Measured values taken from the supplement of paper PMC10567573.

B1: FBXO39 (parent)
chain: PSRVHASEVESAVWYVKKFGRYLE

Variants of: B1
Assay: protein stability index of a GFP-peptide fusion (GPS, HEK-293T) (PSI 1-6); higher = more stable
Details: c terminus: a fixed tail appended
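Also: lentivirally expressed fusions sorted by FACS into six bins by GFP to DsRed ratio, PSI derived from sequencing read proportions per bin multiplied by bin number.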

Protein stability index, by site and new letter:
V4: C 1.49, W 2.06, E 2.52, Y 1.34, K 1.63, R 1.8, P 1.92, I 2.39, Q 2.21, L 2.22, H 2.25, M 1.97, T 1.65, N 2.13, S 1.58
H5: K 1.4, C 1.61, S 2.05, Q 2.69, E 3.31, I 1.39, A 2.11, D 2.52, N 2.36, F 2.02, W 2.86, Y 1.43, G 2.26, L 2.49, P 2, V 1.68, M 1.86
E8: D 2.08, L 2.36, C 2.27, N 1.56, R 3.41, I 2.11, Q 1.85, P 2.75, M 3.03
V13: Y 1.43, H 2.72, N 3.09, Q 2.73, S 2.57, P 3.59, L 2.5, I 1.61, M 2.13, T 1.96, R 2.17, A 2.44, E 2.96, G 2.4, W 1.6
Y15: V 1.41, G 2.84, D 3.73, E 2.45, R 2.21, P 2.61, L 2.34, M 2.9, F 1.42, I 1.58, N 3.31
R3: C 1.88, Y 1.58, I 2.18, A 2.04, E 2.04, L 1.72, T 3.32, P 2.49, N 2.19, M 2.54, D 2.9, G 2.29, Q 2.46
S11: D 2.49, P 1.95, N 1.97, L 1.99, V 1.57, F 1.74, W 1.54, H 2.08, M 2.17, K 2.91, C 2.4, E 2.57, Y 2.07, I 2.1
V16: C 2.65, T 2.43, E 2.96, L 1.87, Y 2.44, R 3.17, A 2.4, G 2.81, D 3.18, H 3.32, K 3.01, S 3.08, F 1.83, M 2.65, Q 2.5, I 1.72
R21: N 2.3, F 1.9, P 1.98, T 2.08, S 2.22, G 2.42, V 2.42, L 1.53, Y 1.65, M 1.37, A 1.74
S7: A 2.22, W 1.59, R 1.48, G 1.66, N 2.12, F 1.97, C 1.48, V 2.13, D 2.68, T 1.77, E 2.09, I 1.84, M 1.81, L 1.64, P 2.33, H 2.24
A12: Y 1.65, N 3.01, C 1.49, M 2.16, G 2.02, Q 3.27, F 1.28, V 1.29, H 2.83, I 2.34, W 2.98, R 2.54, K 2, E 3.02
F19: V 1.98, L 2.22, P 2.72, W 2.12, C 2.04, D 3.27, A 2.77, K 3.32, I 1.88, G 3.17, T 2.55, N 3.43, S 2.42, H 3.06, M 2.14
V9: Y 1.94, N 2.56, R 2.34, M 1.92, L 1.83, P 2.33, F 1.62, Q 2.35, E 3.31, G 3.35, K 1.92, T 2.33, S 2.62
Y22: M 2.1, V 2.28, F 1.91, I 1.85, K 3.58, W 3.81, R 2.98, G 2.85, C 2.44, S 2.58, T 2.03, D 2.89, A 2.39
E24: I 2.01, G 1.94, V 1.74, N 2.06, Q 1.99, M 2.07, W 2.33, C 2.42, A 1.59, K 2.13, H 1.94, F 1.94, R 2.22, P 2.26, L 1.54
S2: F 1.64, I 2.33, V 1.46, Q 2.18, R 1.82, T 2.31, N 2.51, K 2.67, L 1.63, D 2.19, M 2.08
W14: Q 2.87, C 3.17, F 1.73, R 2.58, V 2.64, Y 2.18, T 3.68, P 2.96, I 2.38, K 2.67, S 3.22, L 2.32, N 3.68, E 2.8, G 2.89, D 3.84
L23: H 2.45, A 2.59, Q 2.74, N 2.5, I 2.17, Y 2.53, R 2.5, P 2.58, S 2.76, M 2.09, K 3.07, G 1.48, E 2.26
P1: I 1.83, L 2.13, M 1.87, T 2.01, E 1.84, Y 1.63, V 1.7, C 1.82, R 1.71, Q 3.14, G 2.83, A 2.45, N 1.72, S 1.52, D 2.08, H 2.06
K18: L 1.79, C 2.36, M 1.82, W 2.4, R 1.5, E 2.37, Y 1.47, T 1.73, S 1.81, Q 1.75, G 2.02, P 2.07
A6: R 1.56, F 3.3, G 1.97, H 1.76, L 2.24, K 1.79, N 1.74, T 2.4, I 2.06, S 2.72, W 2.48, Y 1.58, M 1.27, V 1.7, Q 2.11, E 2.32, P 1.82, C 2.08
K17: N 2.82, E 2.35, F 1.87, I 2.39, G 2.57, T 1.77, H 2.1, W 1.61, R 3.25, A 2, L 2.52, Y 2.66, C 1.34
G20: H 1.62, P 1.64, E 2.95, R 2.1, Y 1.46, Q 2.55, A 3.14, D 2.27, I 1.91, T 1.28, S 2.04, M 2.09, F 1.55, K 2.19
E10: Q 2.17, F 2.31, K 2.21, R 2.37, I 1.85, P 2.04, N 1.66, L 3.06, M 1.49, D 1.84, T 2.69, C 1.99, G 1.41, A 1.64
